Experimental data taken from US20100287629A1 (published 2010).

Molecular target: T1, native human CD4 on the cell surface (human, UniProt P01730 26-458)
T1 construct: whole, on cells; also called CD4 on SupT1 cells; CD4 on human PBL/PBMC
Test: flow cytometry on SupT1 cells; half-maximal fluorescence, four-parameter fit
Procedure: The avidity and affinity determinations described above were performed with recombinant CD4 (rCD4). To determine the avidity of the human monoclonal antibodies for native CD4 (nCD4). […] Specifically, serial dilutions of antibody were incubated with SupT1 cells for 6 hr on ice, washed and detected any bound antibody with FITC-goat anti-human Fcγ.
*Human monoclonal antibodies were incubated in serial dilutions with SupT1 cells for 6 hrs, washed twice and incubated with FITC-conjugated goat anti-human Fcγ antisera, washed and fixed. The Ka was calculated from the concentration of antibody yielding one-half of the maximum fluorescence as determined from a four-parameter fit.

B1: human IgG kappa anti-CD4 monoclonal antibody 6G5 (antibody, V domains shown)
VH: QVQLQQWGAGLLKPSETLSLTCAVYGGSFSGYYWSWIRQPPGKGLEWIGEINHSGSTNYNPSLKSRVTISVDTSKNQFSLKLSSVTAADTAVYYCARVINWFDPWGQGTLVTVSS
VL: DIQMTQSPSSVSASVGDRVTITCRASQDISSWLAWYQHKPGKAPKLLIYAASSLQSGVPSRFSGSGSGTDFTLTISSLQPEDFATYYCQQANSFPYTFGQGTKLEIK
notes: Human IgG1 kappa from hybridoma of an HC2/KCo5/JHD/JCKD mouse; CDR3 VINWFDP (VH4-34, JH5); l.c; also called 6G5.1
Work on B1 yielded a Ka of 1.9e+09 M⁻¹.

B2: human IgG kappa anti-CD4 monoclonal antibody 10C5 (antibody, V domains shown)
VH: B1 VH
VL: B1 VL
notes: Human IgG1 kappa from hybridoma of an HC2/KCo5/JHD/JCKD mouse; CDR3 VINWFDP (VH4-34, JH5); l.c; same primary B cell as 6G5; also called 10C5.6
B2 showed a Ka of 1.8e+09 M⁻¹.
